# Data published in paper PMC8632080.
# pKd: −log10 of the molar value.
# Assays:
# Assay in all cases: ELISA; dose-response: host component coated as in the single-dose assay; increasing concentrations of recombinant protein (0–6 µM LipL21, 0–1.5 µM LipL41) in PBS-BSA, 2 h 37°C; KD from non-linear regression, one site-specific binding (GraphPad Prism 7)
# [1] = target: E-cadherin (human recombinant) (human) (UniProt P12830)
# collagen IV = target: collagen IV
# [2] = target: elastin (human aorta) (human) (UniProt P15502)
# UniProt P15502, sequence (P15502 27-786): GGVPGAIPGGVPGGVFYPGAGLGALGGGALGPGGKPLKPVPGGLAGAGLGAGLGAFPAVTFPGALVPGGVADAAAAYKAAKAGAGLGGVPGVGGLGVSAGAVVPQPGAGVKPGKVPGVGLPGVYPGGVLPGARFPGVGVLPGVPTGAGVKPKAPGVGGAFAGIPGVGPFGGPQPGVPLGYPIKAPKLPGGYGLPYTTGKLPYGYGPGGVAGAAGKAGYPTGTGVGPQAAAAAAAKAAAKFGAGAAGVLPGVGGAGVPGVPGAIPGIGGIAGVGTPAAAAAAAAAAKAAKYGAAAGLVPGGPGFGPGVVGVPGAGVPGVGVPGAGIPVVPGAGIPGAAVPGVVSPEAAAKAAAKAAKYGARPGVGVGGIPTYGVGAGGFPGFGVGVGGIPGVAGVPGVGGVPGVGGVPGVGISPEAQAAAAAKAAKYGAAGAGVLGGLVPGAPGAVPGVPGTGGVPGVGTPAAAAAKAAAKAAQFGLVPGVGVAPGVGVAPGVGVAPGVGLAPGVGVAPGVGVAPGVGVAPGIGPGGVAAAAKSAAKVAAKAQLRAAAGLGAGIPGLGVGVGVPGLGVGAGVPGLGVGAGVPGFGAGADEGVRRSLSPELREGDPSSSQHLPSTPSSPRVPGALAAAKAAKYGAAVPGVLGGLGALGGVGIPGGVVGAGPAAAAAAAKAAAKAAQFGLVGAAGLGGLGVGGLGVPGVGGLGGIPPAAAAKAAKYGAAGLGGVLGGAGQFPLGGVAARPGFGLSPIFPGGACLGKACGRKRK
# [3] = target: laminin (human placenta) (human)
# [4] = target: collagen type I (rat tail) (rat) (UniProt P02454)
# UniProt P02454, sequence (P02454 152-1207, chain 1 of 2): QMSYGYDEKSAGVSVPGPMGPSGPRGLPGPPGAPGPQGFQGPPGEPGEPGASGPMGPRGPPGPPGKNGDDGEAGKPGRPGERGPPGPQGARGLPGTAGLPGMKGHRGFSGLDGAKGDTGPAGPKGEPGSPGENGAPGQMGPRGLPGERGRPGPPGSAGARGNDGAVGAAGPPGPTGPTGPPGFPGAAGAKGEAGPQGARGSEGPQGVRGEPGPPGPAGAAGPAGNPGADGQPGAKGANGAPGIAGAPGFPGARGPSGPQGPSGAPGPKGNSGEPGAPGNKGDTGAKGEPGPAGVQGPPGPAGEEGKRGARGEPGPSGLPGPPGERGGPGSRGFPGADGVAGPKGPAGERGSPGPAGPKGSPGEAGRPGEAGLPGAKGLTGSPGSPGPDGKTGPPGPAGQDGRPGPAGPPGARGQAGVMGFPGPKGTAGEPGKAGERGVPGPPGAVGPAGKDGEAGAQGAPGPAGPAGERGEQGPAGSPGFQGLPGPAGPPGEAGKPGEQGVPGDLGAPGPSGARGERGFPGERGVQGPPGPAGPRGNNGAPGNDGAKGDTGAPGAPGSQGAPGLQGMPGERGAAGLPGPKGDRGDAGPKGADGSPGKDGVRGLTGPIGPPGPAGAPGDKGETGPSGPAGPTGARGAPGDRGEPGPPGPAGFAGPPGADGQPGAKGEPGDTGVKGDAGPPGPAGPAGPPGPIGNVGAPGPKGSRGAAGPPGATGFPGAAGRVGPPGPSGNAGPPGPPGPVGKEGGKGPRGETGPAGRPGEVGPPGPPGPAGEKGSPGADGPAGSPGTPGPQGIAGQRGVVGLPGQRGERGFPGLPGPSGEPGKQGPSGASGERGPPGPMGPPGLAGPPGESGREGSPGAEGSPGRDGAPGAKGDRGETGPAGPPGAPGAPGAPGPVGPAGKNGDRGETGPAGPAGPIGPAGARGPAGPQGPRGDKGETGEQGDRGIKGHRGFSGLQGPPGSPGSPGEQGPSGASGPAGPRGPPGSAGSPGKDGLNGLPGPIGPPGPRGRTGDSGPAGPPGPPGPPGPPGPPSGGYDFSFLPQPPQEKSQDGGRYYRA
# UniProt P02454, sequence (P02466 86-1125, chain 2 of 2, further chain): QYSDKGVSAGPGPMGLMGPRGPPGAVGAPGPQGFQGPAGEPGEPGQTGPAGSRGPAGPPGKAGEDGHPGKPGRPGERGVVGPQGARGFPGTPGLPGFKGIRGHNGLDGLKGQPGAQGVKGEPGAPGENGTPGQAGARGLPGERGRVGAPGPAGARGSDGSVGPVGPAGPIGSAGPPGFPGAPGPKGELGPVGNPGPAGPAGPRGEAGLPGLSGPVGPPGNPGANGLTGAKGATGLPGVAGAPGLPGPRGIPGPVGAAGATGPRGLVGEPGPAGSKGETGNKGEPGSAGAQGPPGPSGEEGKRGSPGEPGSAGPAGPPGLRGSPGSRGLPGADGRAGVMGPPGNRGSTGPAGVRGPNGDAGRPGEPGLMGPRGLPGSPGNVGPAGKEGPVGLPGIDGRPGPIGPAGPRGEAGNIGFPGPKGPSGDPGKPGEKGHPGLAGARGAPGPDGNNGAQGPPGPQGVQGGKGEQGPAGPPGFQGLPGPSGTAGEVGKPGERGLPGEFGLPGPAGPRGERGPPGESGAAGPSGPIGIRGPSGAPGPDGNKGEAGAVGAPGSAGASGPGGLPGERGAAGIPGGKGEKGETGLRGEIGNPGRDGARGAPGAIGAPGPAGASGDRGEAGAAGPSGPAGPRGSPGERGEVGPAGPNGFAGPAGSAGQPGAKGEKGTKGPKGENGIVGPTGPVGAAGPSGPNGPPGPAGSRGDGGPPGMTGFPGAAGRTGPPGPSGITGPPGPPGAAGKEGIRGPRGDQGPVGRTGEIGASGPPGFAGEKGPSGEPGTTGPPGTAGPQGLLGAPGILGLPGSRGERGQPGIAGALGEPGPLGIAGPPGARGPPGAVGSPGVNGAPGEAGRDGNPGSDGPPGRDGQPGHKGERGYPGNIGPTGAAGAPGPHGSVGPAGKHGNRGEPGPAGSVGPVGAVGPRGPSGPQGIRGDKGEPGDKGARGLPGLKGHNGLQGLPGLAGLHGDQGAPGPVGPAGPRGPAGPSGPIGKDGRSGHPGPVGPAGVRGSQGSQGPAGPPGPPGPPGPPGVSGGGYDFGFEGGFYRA
# [5] = target: fibrinogen (human plasma) (human) (UniProt P02671)
# UniProt P02671, sequence (P02671 36-866, chain 1 of 3): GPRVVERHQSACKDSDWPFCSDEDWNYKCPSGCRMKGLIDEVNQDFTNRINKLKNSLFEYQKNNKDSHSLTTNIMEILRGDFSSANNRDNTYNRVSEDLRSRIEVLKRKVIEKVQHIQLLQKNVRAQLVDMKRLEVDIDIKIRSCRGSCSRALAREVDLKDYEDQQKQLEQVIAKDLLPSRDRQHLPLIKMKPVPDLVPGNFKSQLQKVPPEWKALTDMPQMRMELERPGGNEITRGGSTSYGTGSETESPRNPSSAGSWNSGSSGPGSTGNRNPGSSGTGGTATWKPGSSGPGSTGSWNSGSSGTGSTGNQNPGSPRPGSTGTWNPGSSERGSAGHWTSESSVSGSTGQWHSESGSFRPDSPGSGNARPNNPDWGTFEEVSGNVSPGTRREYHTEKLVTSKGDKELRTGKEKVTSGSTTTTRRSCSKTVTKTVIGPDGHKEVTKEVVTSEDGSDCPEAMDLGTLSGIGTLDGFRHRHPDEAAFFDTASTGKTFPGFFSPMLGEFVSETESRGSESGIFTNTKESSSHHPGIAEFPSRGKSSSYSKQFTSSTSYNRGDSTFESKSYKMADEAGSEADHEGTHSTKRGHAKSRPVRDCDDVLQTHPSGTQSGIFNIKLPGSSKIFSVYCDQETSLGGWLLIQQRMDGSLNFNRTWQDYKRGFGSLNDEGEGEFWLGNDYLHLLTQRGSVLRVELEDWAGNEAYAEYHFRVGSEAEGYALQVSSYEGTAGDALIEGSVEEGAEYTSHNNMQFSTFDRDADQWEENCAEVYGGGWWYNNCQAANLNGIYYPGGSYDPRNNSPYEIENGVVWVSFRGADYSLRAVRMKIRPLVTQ
# UniProt P02671, sequence (P02675 45-491, chain 2 of 3, further chain): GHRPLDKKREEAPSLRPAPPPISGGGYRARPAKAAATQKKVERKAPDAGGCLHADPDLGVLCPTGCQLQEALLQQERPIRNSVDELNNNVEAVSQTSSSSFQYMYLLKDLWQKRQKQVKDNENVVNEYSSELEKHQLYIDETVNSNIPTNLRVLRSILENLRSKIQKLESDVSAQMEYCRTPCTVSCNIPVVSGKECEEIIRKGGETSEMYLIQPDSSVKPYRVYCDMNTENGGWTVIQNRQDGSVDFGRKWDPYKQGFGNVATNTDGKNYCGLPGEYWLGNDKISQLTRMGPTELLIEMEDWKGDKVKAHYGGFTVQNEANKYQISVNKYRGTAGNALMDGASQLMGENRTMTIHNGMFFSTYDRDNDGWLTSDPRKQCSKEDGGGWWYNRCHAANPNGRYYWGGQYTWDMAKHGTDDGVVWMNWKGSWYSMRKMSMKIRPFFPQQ
# UniProt P02671, sequence (P02679 27-453, chain 3 of 3, further chain): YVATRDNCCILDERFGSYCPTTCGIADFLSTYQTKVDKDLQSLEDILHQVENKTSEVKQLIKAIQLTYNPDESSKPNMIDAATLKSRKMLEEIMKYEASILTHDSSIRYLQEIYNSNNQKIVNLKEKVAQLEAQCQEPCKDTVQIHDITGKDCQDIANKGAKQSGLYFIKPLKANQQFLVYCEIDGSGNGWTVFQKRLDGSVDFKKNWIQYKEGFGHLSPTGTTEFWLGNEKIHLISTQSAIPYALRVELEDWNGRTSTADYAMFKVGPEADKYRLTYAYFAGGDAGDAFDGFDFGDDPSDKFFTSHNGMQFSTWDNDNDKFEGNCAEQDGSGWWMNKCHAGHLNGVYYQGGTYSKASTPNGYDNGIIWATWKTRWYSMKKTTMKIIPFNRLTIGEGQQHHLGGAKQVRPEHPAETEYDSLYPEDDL
# [6] = target: plasma fibronectin (human plasma) (human)
# [7] = target: plasminogen (human plasma) (human)
# [8] = target: vitronectin (human plasma) (human)
Substance,pKd [1],pKd (collagen IV),pKd [2],pKd [3],pKd [4],pKd [5],pKd [6],pKd [7],pKd [8]
recombinant LipL41 (LIC12966) (natural protein),5.86,6.27,5.57,6.51,,,,,
recombinant LipL21 (LIC10011) (natural protein),6.83,7.27,6.77,6.54,5.21,5.95,5.59,7.86,6.37
